Reference: patent US20190367619A1 (ARGENX, published 2019)

T1: human galectin-10-His (human)
T1 construct: The last M of the tag may be Met1 of galectin-10; also called humanGal10-His; hGal10
T1 chain: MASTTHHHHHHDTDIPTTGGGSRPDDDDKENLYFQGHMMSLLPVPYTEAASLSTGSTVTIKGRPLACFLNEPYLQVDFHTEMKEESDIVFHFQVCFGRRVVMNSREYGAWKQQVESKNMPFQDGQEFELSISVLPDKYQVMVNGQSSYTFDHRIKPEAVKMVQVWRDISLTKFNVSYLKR

T2: recombinant human galectin-10, TEV-cleaved (human, UniProt Q05315 1-142)
T2 sequence: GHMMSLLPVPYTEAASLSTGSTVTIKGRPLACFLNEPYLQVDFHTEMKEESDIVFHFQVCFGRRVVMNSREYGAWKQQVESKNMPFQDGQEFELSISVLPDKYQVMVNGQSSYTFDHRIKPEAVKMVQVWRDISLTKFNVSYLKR

T3: TEV-cleaved wild-type recombinant human galectin-10 (soluble, in Fab complexes, or as recombinant galectin-10 … (human, UniProt Q05315 1-142))
T3 sequence: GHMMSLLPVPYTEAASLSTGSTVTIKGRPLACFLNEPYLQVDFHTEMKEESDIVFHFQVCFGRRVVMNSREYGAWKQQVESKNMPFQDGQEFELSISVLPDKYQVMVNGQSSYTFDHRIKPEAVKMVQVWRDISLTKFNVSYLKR

T4: human galectin-10-His (recombinant human galectin-10 with TEV-cleavable N-terminal His-tag) (human)
T4 construct: SEC-MALLS: dimer in solution; also called Gal10-His; humanGal10-His
T4 chain: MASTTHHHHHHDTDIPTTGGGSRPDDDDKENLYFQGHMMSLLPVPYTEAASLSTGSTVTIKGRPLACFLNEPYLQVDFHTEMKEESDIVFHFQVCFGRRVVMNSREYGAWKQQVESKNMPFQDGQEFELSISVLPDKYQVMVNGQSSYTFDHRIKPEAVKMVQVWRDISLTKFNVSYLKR


Tests used:
[1] = biological target: T1, human galectin-10-His; assay: ELISA, galectin-10-His coated at 1 ug/mL, Fab
Method: The binding capacity of the lead anti-galectin-10 Fabs was tested by binding ELISA. Briefly, a Maxisorp plate was coated overnight with 1 μg/mL of human galectin-10-His. Then a serial dilution of each clone (from 4 μM, dilution 1/4, 12 points of dilutions) was incubated on coated galectin-10. After several washing steps, detection of the bound Fab was carried out with an anti-human IgG Fab specific-peroxidase. Absorbance was measured at 450 nm (reference at 620 nm) with Tecan instrument.

[2] = biological target: T2, recombinant human galectin-10, …; assay: cell-based or functional assay
[3] = biological target: T3, TEV-cleaved wild-type recombinant human …; assay: cell-based or functional assay
[4] = biological target: T4, human galectin-10-His (recombinant …); assay: SPR Biacore T3000, scFv-hFc captured by anti-human Fc, galectin-10-His as analyte
Method: In order to determine the binding properties (on-rate/off-rate) of the scFv-human Fc panel, their binding capacity to galectin-10 was analyzed on Biacore T3000. For this purpose, a capture approach was set up. A CM5 Chip was coated with polyclonal anti-human Fc at 8000 RU, then a fixed concentration of the scFv-human Fc panel (1.5 μg/mL), diluted in HBS-EP pH7.4, were captured to reach a binding signal around 150 RU. Finally, a serial dilution of galectin-10-His (serial dilution, 1 over 2 from 5 μg/mL, 6 points of dilution) diluted in HBS-EP pH7.4 was injected. Raw data were analyzed via BIA evaluation software with a blank subtraction (4-3). The kd/KD and Rmax of each scFv-human Fc for galectin-10-His was determined using the Fit Kinetics simultaneous ka/kd/Binding with mass transfer/Local Rmax on BIA evaluation software.

[5] = biological target: T4, human galectin-10-His (recombinant …); assay: ELISA, scFv-hFc on coated galectin-10-His (0.2 ug/mL)
Method: In a similar setup to that used during the initial screening, the relative binding properties of the 12 scFv-human Fc clones were analyzed by ELISA. Briefly, a Maxisorp plate was coated with galectin-10-His at 0.2 μg/mL and blocked with casein, before being incubated with a serial dilution of the scFv-human Fc fusion molecules. After several washing steps, detection of the bound scFv-human Fc was carried out with an anti-human Fc-HRP antibody. Absorbance was measured at 450 nm (reference at 620 nm) with Tecan instrument. Finally, the raw data (OD values) were plotted on GraphPad Prism 7.01. The EC50 value of each compound was calculated with a non-linear regression (log(agonist) vs. response Variable slope (four parameters)).

[6] = biological target: T1, human galectin-10-His; assay: ELISA, coated antigen 0.2 ug/mL
Method: In a similar setup to that used during the initial screening, the relative binding properties of the 11 new scFv-human Fc clones were analyzed by ELISA. Briefly, a Maxisorp plate was coated overnight with human or cynomolgus WGS or YRT isoforms of galectin-10-His at 0.2 μg/mL and blocked with PBS 1% casein, before being incubated with a serial dilution of the scFv-human Fc fusion molecules (from 100 nM, dilution 1/5, 8 points of dilutions). After several washing steps, detection of the bound scFv-human Fc was carried out with an anti-human Fc-HRP antibody (Jackson ImmunoResearch, Catalog 109-035-008). Absorbance was measured at 450 nm (reference at 620 nm) with Tecan instrument. Finally, the raw data (OD values) were plotted on GraphPad Prism 7.01. The EC50 values of each clone, calculated with a non-linear regression (log(agonist) vs. response Variable slope (four parameters)) are reported in Table 19 below. As a positive control, clone 6F05 from the previous galectin-10 antibody panel was included.

| Binder | Bmax [1] | EC50 [1] | 50% crystal dissolution (min), 50 uM [2] | 90% crystal dissolution (min), 50 uM [2] | 100% Solubilization of CLC (Conc uM) [3] | Kd [4] | koff [4] | Bmax (OD values) [5] | EC50 [5] | Bmax [6] | EC50 [6] |
| --- | --- | --- | --- | --- | --- | --- | --- | --- | --- | --- | --- |
| 8H11 Fab (Fab, V domains shown, Fab with human CH1 (including part of the hinge region) and human lambda constant domain; also called 8H11 hFab) VH: ELQLVESGGGLVQPGGSLRLSCAASGFTFSTNYMNWVRQAPGKGLEWVSGITSGGGRTYYADSVKGRFTISRDNAKNTLYLQMNSLKPEDTALYYCARTDHAWLDAWGQGTLVTVSS VL: QAGLTQPPSVSGTLGKTVTISCAGTSSDVGYGNYVSWYQQLPGTAPKLLIYAVSTRASGIPDRFSGSKSGNTASLTISGLLSEDEADYYCASYRSSNNYVFGGGTKLTVL | 0.95 OD | 24.3 nM | 48.5 min | > 120 min | – | – | – | – | – | – | – |
| 10A06 Fab (Fab, V domains shown, Fab with human CH1 (including part of the hinge region) and human lambda constant domain; also called 10A06 hFab) VH: QVQLVESGGGLVQPGGSLRLSCAASGFTFGNYDMSWVRQAPGKGPEWVSDINSGGGSTYYADSVKGRFTISRDNAKNSLLLQMNSLKPEDTAVYYCATGYTGYYYWGQGTQVTVSS VL: QTVVTQEPSLSVSPGGTVTLTCGLSSGSVTSSNYPAWYQQTPGQAPRALIYSINSRHSGVPDRFSGSISGNKAALTITGAQAEDEADYYCTLYMGTGSNNVVFGGGTHLTVL | 0.36 OD | 89.5 nM | 49.1 min | > 120 min | – | – | – | – | – | – | – |
| 2E11 scFv-human Fc (Fc fusion, about 100 kDa on SDS-PAGE; also called 2E11 ScFv-hFc; not shown: CH2-CH3 constant domains of human IgG1 (vector pUPEX50)) scFv: EVQLVESGGGLVQPGGSLRLSCAASGFTFSSYAMSWVRQAPGKGLEWVSPINSGSDSASYVDSVKGRFTISRDNAKNTLYLQMNSLKPEDTAVYYCAKARTSVVAGGMDYWGKGTLVTVSSGGGGSGGGGSGGGGSQSALTQPSAVSVSLGQTARITCQGGKFGSYYVSWYQQKPGQAPVMVIYKDNERPSGIPERFSGSSSGSTSTLTISGAQAEDEGTYYCQSGSSSDNIVFGGGTELTVF | – | – | – | – | 4.36 µM | 1.16 nM | 0.0111 s⁻¹ | 1.43 OD | 0.14 nM | – | – |
| 2C07 scFv-human Fc (Fc fusion, about 100 kDa on SDS-PAGE; also called 2C07 ScFv-hFc; not shown: CH2-CH3 constant domains of human IgG1 (vector pUPEX50)) scFv: ELQLVESGGGLVQPGGSLRLSCAASGFTFSSYAMSWVRQAPGKGLEWVSNINSGGGSTGYADSVKGRFTISRDNAKNTLYLQMNSLKPEDMAVYYCAKYLRTYYPNAAFGMDYWGKGTLVTVSSGGGGSGGGGSGGGGSQAVLTQPSAVSVSLGQTARITCQGGNFGRYYASWYQQKPGQAPVLVIYRDSERPSGIPERFSGSSSGDTATLTISGAQAEDEADYYCQSGRSSDNAVFGGGTHLTGL | – | – | – | – | 6.86 µM | 0.677 nM | 0.000259 s⁻¹ | 2.89 OD | 0.05 nM | – | – |
| 4H10 scFv-human Fc (Fc fusion, about 100 kDa on SDS-PAGE; also called 4H10 ScFv-hFc; not shown: CH2-CH3 constant domains of human IgG1 (vector pUPEX50)) scFv: QVQLVESGGGLVQPGGSLRLSCAASGFTFDDYAMSWVRQAPGKGLEWVSAISWNGGSTYYAESMKGRFTISRDNAKNTLYLQMNSLKSEDAAVYYCAKDLSASGSYYHTFGSWGQGTQVTVSSGGGGSGGGGSGGGGSQAGLTQPPSVAGTLGKTVTISCAGTSSDVGYGDYVSWYQHIPGTAPKLLIYKVKTRASGIPDRFSGSKSGNTASLTISGLQSGDESDYYCASYKNGGTAVFGGGTHLTVL | – | – | – | – | 6 µM | 1.55 nM | 0.00277 s⁻¹ | 1.3 OD | 0.2 nM | – | – |
| 7B07 Fab (Fab, V domains shown, Fab with human CH1 (including part of the hinge region) and human lambda constant domain; also called 7B7; 7B07 hFab) VH: QVQLVESGGGLVQPGGSLRLSCAASGFTFRSYDMSWVRQAPGKGPEWVSAIKNGGGITYYADSVKGRFTISRDNAKNTLYLQMNSLKPEDTAVYYCATTHGIGTLGFGSWGQGTQVTVSS VL: SYELTQSASVSVALTQTAKITCDGNNIGSKSAQWYQQKPGQAPALVIYADEYRPEGIPERFSGSNSGNTATLIISGAQAEDEADYYCQVWDGSAAVFGRGTHLTVL | 0.65 OD | 24.4 nM | 15.1 min | 54.1 min | – | – | – | – | – | – | – |
| 4G05 scFv-human Fc (Fc fusion, about 100 kDa on SDS-PAGE; also called 4G05 ScFv-hFc; not shown: CH2-CH3 constant domains of human IgG1 (vector pUPEX50)) scFv: QLQVVESGGGLVQTGGSLTLSCTTSGFTFSRYWMIWVRQAPGKGLEWVSSIYNDGGNTYYADSVKGRFTISRDNSENTLYLQMNSLKSEDTAVYYCAKLKAAYYGMDYWGKGTLVTVSSGGGGSGGGGSGGGGSSSALTQPSAVSVSLGQTARITCQGANLGRYYGIWYQQKPGQAPVQVIYGDSNRPSGIPERFSGSSSGGTATLTISGAQAEDEADYYCQSYESSTSPVFGGGTHLTVL | – | – | – | – | 4.36 µM | 0.911 nM | 0.0437 s⁻¹ | 3.03 OD | 0.09 nM | – | – |
| 4B10 scFv-human Fc (Fc fusion, about 100 kDa on SDS-PAGE; also called 4B10 ScFv-hFc; not shown: CH2-CH3 constant domains of human IgG1 (vector pUPEX50)) scFv: QLQLVESGGGLVQPGGSLRLSCAASGFTFSNYWMYWVRQAPGKGLEWVSAIDVGGGTTDYAGSVKGRFTISRDNTKSTVYLQMNTLKPEDTALYYCLRGGSYYGGMDYWGKGTLVTVSSGGGGSGGGGSGGGGSQSALTQPSAVSVSLGQTARITCQGAKLGRYYGIWYQQKPGQAPVQVIYGDSNRPSGIPERFSGSSSGGTATLTISGAQAEDEADYYCQSYESSTSPVFGGGTHLTVL | – | – | – | – | 6.14 µM | 1.94 nM | 0.0128 s⁻¹ | 1.28 OD | 0.08 nM | – | – |
| 2B11 scFv-human Fc (Fc fusion, about 100 kDa on SDS-PAGE; also called 2B11 ScFv-hFc; not shown: CH2-CH3 constant domains of human IgG1 (vector pUPEX50)) scFv: QVQLQESGPGLVKPSQTLSLTCTVSGGSITTNYYYWSWIRQPPGKGLEWMGAIAYSGSTYYSPSLKSRTSISRDTSKNQFTLQLSSVTPEDTAVYYCARAPYGISREYDYWGQGTQVTVSSGGGGSGGGGSGGGGSHSAVTQPSAVSVSLGQTARITCQGGKFGRYYASWYQQKPGQAPVLVIYKDSERPSGIPERFSGSSSGDTATLSISGAQAEDEADYFCQSGRSSDNAVFGGGTHLTVL | – | – | – | – | 5.04 µM | 0.875 nM | 0.018 s⁻¹ | 2.43 OD | 0.08 nM | – | – |
| 6F05 scFv-human Fc (Fc fusion, Positive control from the first panel; also called 6F5; not shown: CH2-CH3 constant domains of human IgG1 (pUPEX50 scFv-Fc fusion vector)) scFv: QLQLVESGGGLVQPGGSLRLSCAASGFTFSSYAMSWVRQAPGKGLEWVSAINSGGGSTSYADSVKGRFTISRDNAKNTLYLQMNSLKPEDTAVYYCATPGDRLWYYRYDYWGQGTQVTVSSGGGGSGGGGSGGGGSQAGLTQPPSVSGTLGKAVTISCAGTSSDIGYGNYVSWYQQLPGTAPKLLIYKVSRRASGVPDRFSGSKSGNTASLSISGLQSEDEADYYCASYRYRNNVVFGGGTHLTVL | – | – | – | – | – | – | – | – | – | 2.4 OD | 0.02 nM |
